Test results taken from US20260241018A1 (BIOCYTOGEN PHARMACEUTICALS BEIJING, published 2026).

T1: His-tagged 5T4 protein of human (h5T4, ACRO Biosystems Inc., Cat #: TPG-H52E5) (human, UniProt Q13641 32-355)
T1 construct: Bought protein; not shown: His tag
T1 sequence (looked up): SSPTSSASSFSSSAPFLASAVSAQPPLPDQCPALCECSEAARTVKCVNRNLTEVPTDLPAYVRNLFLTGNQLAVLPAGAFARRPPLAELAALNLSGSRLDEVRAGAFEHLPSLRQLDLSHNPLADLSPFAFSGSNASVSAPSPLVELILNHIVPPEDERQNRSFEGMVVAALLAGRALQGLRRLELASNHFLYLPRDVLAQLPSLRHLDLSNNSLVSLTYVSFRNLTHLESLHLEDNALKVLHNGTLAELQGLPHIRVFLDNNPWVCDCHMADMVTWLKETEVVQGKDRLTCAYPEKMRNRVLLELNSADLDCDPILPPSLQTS

T2: His-tagged 5T4 protein of monkey (fas5T4, ACRO Biosystems Inc., Cat #: TPG-C52H3) (monkey, UniProt Q4R8Y9 35-355)
T2 construct: Bought protein
T2 sequence: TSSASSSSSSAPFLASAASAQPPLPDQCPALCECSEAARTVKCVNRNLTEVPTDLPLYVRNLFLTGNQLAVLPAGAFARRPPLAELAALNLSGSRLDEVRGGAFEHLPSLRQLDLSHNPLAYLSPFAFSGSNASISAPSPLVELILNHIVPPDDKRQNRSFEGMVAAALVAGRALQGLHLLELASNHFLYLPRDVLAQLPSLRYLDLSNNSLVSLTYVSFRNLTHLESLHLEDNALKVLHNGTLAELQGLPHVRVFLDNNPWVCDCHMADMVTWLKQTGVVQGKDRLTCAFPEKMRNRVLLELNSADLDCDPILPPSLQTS

T3: h5T4-His protein (human, UniProt Q13641 32-355, limits assumed)
T3 construct: also called His-tagged human 5T4 protein; not shown: His tag
T3 sequence (looked up): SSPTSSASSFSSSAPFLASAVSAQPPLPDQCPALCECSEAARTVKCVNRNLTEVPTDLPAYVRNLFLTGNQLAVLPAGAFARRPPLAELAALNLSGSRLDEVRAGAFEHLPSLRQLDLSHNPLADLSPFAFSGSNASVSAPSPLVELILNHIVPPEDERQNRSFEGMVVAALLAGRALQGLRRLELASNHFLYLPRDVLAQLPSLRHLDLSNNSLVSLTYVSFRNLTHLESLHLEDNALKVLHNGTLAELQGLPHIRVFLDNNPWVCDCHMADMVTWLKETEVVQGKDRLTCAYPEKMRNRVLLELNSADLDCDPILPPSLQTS

T4: dog 5T4 expressed on CHO-S cells (CHO-d5T4 cells) (dog)
T4 chain: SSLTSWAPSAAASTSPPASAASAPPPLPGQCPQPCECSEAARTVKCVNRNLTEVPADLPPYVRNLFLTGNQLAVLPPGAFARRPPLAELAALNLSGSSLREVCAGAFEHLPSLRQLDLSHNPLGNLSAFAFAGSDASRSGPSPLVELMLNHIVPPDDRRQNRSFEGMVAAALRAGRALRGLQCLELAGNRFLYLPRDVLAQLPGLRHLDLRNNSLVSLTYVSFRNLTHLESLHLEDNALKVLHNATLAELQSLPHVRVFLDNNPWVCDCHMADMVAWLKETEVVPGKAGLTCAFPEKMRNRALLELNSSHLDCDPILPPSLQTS

T5: human 5T4 expressed on CHO-S cells (CHO-h5T4 cells) (human, UniProt Q13641 32-355)
T5 sequence: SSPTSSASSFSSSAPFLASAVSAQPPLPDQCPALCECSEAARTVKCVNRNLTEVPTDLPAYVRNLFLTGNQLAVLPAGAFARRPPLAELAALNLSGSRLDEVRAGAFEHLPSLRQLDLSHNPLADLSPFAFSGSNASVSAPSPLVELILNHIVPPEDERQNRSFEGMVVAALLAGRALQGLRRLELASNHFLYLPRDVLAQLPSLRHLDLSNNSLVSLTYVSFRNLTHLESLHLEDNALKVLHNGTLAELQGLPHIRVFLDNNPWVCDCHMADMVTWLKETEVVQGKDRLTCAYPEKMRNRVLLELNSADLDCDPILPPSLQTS

T6: monkey (Macaca fascicularis) 5T4 expressed on CHO-S cells (CHO-fas5T4 cells) (monkey (Macaca fascicularis), UniProt Q4R8Y9 35-355)
T6 construct: also called monkey 5T4
T6 sequence: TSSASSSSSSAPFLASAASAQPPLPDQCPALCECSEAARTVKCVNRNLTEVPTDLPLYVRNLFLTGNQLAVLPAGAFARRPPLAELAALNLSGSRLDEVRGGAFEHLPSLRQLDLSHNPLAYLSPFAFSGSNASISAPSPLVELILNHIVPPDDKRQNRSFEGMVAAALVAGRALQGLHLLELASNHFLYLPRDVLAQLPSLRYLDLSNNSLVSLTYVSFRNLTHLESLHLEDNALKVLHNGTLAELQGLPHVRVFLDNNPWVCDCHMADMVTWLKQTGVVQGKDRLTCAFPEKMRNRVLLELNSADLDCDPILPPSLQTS

T7: mouse 5T4 expressed on CHO-S cells (CHO-m5T4 cells) (mouse, UniProt Q9Z0L0 32-361)
T7 sequence: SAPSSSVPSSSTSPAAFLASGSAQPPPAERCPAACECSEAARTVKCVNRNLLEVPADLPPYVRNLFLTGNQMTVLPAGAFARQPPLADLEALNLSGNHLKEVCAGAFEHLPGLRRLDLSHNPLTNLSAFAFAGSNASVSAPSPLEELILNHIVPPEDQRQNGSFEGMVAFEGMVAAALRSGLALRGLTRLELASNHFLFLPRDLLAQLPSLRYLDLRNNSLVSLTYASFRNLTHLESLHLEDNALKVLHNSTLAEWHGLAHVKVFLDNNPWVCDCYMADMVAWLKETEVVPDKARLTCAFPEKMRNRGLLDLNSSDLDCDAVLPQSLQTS

T8: His-tagged 5T4 protein of mouse (m5T4, ACRO Biosystems Inc., Cat #: TPG-M52H3) (mouse, UniProt Q9Z0L0 32-361, limits assumed)
T8 construct: Bought protein; not shown: His tag
T8 sequence (looked up): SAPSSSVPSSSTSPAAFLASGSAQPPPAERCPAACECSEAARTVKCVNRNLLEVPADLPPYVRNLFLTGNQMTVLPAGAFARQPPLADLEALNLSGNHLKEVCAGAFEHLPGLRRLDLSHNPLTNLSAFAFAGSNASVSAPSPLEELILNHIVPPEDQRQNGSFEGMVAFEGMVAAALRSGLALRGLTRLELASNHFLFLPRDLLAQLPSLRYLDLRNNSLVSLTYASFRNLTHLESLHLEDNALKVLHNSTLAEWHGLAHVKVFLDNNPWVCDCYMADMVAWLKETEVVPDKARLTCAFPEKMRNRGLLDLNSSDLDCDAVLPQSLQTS


What was measured:
[1] = target: T1, His-tagged 5T4 protein of human (h5T4, …); test: SPR (Biacore 8K), antibody captured on Protein A chip, His-tagged 5T4 as analyte
Procedure: (§1) Purified anti-5T4 antibodies were diluted to 2 μg/mL and then injected into the Biacore™ 8K biosensor at 10 μL/min for about 50 seconds to achieve a desired protein density (e.g., about 50 response units (RU)). His-tagged 5T4 protein at a concentration of 200 nM was then injected at 30 μL/min for 180 seconds. Dissociation was monitored for 400 seconds. The chip was regenerated after the last injection of each titration with Glycine (pH 2.0), 30 μL/min for 30 seconds. For ISO control, an antibody targeting an irrelevant target protein was used.
(§2) As a person of ordinary skill in the art would understand, the same method with appropriate adjustments for parameters (e.g., antibody concentration) was performed for each tested antibody.

[2] = target: T2, His-tagged 5T4 protein of monkey …; test: as above
Procedure: as §1, §2

[3] = target: T3, h5T4-His protein; test: epitope binding assay, h5T4-His captured; binder = analyte 2; competitor (analyte 1): 35C6
Procedure: (§3) Epitope binding assays were performed using ForteBio Octet system to determine whether two anti-5T4 antibodies target the same or overlapping epitopes. 1×HBS-EP+buffer (10 mM 4-(2-hydroxyethyl)-1-piperazineethanesulfonic acid (HEPES), 150 mM NaCl, 3 mM ethylenediaminetetraacetic acid (EDTA) and 0.05% P20, pH7.4) diluted from HBS-EP+buffer (10×) was used as the running buffer throughout the experiment. About 50 RU of h5T4-His protein was captured at a flow rate of 10 μL/min, and 200 nM of the tested antibody was injected at a flow rate of 30 μL/min to bind the ligand. Another comparison antibody was injected under the same conditions to determine whether the binding of different antibodies interfered with each other. The binding time was 180 s for each antibody.
(§4) The binding value of each antibody was obtained using Data Analysis HT 12.0. To quantify the interference of one antibody binding to another, a binding ratio was calculated to compare each pair of antibodies. The binding ratio is defined as the binding value of the second antibody (analyte 2), divided by the binding value of the first antibody (analyte 1). […] In general, antibody pairs that interfere with each other have the same or overlapping epitopes.

[4] = target: T4, dog 5T4 expressed on CHO-S cells …; test: flow cytometry, CHO-d5T4 cells
Procedure: (§5) CHO-h5T4 cells, CHO-m5T4 cells, CHO-fas5T4 cells or CHO-d5T4 cells were transferred to a 96-well plate at a density of 2×10⁵ cells/well respectively. The anti-5T4 antibodies were added to the 96-well plate, and incubated at 4° C. for 30 min. Then, the cells were incubated with the secondary antibody anti-hlgG-Fc-Alex Flour 647 (RL1-H) (Jackson ImmunoResearch Laboratories, Inc., Cat #: 109-606-170) at 4° C. in the dark for 15 minutes before flow cytometry analysis.

[5] = target: T3, h5T4-His protein; test: epitope binding assay, h5T4-His captured; binder = analyte 2; competitor (analyte 1): 32G1
Procedure: as §3, §4

[6] = target: T5, human 5T4 expressed on CHO-S cells …; test: flow cytometry, CHO-h5T4 cells
Procedure: as §5

[7] = target: T6, monkey (Macaca fascicularis) 5T4 …; test: flow cytometry, CHO-fas5T4 cells
Procedure: as §5

[8] = target: T3, h5T4-His protein; test: epitope binding assay, h5T4-His captured; binder = analyte 2; competitor (analyte 1): 31G4
Procedure: as §3, §4

[9] = target: T3, h5T4-His protein; test: epitope binding assay, h5T4-His captured; binder = analyte 2; competitor (analyte 1): 35B12
Procedure: as §3, §4

[10] = target: T3, h5T4-His protein; test: epitope binding assay, h5T4-His captured; binder = analyte 2; competitor (analyte 1): 32E3
Procedure: as §3, §4

[11] = target: T3, h5T4-His protein; test: epitope binding assay, h5T4-His captured; binder = analyte 2; competitor (analyte 1): 32G8
Procedure: as §3, §4

[12] = target: T7, mouse 5T4 expressed on CHO-S cells …; test: flow cytometry, CHO-m5T4 cells
Procedure: as §5

[13] = target: T8, His-tagged 5T4 protein of mouse (m5T4, …); test: SPR (Biacore 8K), antibody captured on Protein A chip, His-tagged 5T4 as analyte
Procedure: as §1, §2

Kd [1] [nM]	koff [1] [s⁻¹]	kon [1] [M⁻¹ s⁻¹]	Kd [2] [nM]	koff [2] [s⁻¹]	kon [2] [M⁻¹ s⁻¹]	binding ratio [3]	Percentage of Positive Cells [4] [%]	binding ratio [5]	Percentage of Positive Cells [6] [%]	Percentage of Positive Cells [7] [%]	binding ratio [8]	binding ratio [9]	binding ratio [10]	binding ratio [11]	Percentage of Positive Cells [12] [%]	binding result [13]	binding result [12]	Kd [13] [nM]	koff [13] [s⁻¹]	Binder	further results
122	0.0215	176000	198	0.0219	111000	0.04	76	0.05	78	52.1	0.87	0	0.97	0.91	54.1			72.2	0.00366	35B12 (antibody, V domains shown, also called anti-5T4 antibody 35B12) VH: QVQLQESGPRLVKPSETLSLTCTVSGGSISSNDWSWIRQPPGKGLEWIGEISYSGITNYNPSLKSRVSISVETSKNHFSLNLSSVTAADTAVYYCATAGGSSGWYDYWFDPWGQGTLVTVSS VL: not shown	kon [13]: 50700 M⁻¹ s⁻¹
19.2	0.00315	164000				0.02	71.1	0.96	67.3	55.7	0.81	0.03	0.93	0.98	63.3			1.31	0.000407	35C6 (antibody, V domains shown, also called anti-5T4 antibody 35C6) VH: QVQLVQSGGGLVQPGGSLRLSCAASGFTFSRNAMSWVRQAPGKGLEWVSAISGSGGSTHDADSVKGRFTISRDNSKNTLYLEMNSLRAEDTAVYYCAKDGYSSLWDYHYYGMDVWGQGTTVTVSS VL: not shown	kon [13]: 310000 M⁻¹ s⁻¹

Second part, the binder before the results:

Binder	Kd [1] [nM]	koff [1] [s⁻¹]	kon [1] [M⁻¹ s⁻¹]	Kd [2] [nM]	koff [2] [s⁻¹]	kon [2] [M⁻¹ s⁻¹]	binding ratio [3]	Percentage of Positive Cells [4] [%]	binding ratio [5]	Percentage of Positive Cells [6] [%]	Percentage of Positive Cells [7] [%]	binding ratio [8]	binding ratio [9]	binding ratio [10]	binding ratio [11]	Percentage of Positive Cells [12] [%]	binding result [13]	binding result [12]	Kd [13] [nM]	koff [13] [s⁻¹]	further results
32E3 (antibody, V domains shown, also called anti-5T4 antibody 32E3) VH: QVQLVQSGGGLVQPGGSLRLSCVVSGFTVSSDYMSWVRQAPGKGLEWVSIIYSGGSTFYADSVKGRFTISRDNSKNTLFLQMNSLRAEDTAVYYCARDRDCHGWGSYYNRWFDPWGQGTLVTVSS VL: not shown	147	0.00661	44900	116	0.00297	25600	0.96	53.7	0.83	65.8	51.5	0.8	0.97	-0.01	-0.06	52.2					
31G4 (antibody, V domains shown, also called anti-5T4 antibody 31G4) VH: QVQLVQSGGGLVQPGGSLRLSCAASGFTFKSYWMHWVRQAPGKGLEWVSRINFDGSSITYADSVKGRFTISRDNAKNTLYLQMNSLSAEDTAVYYCARPLTYYEILTGFSQYFDFWGQGTLVTVSS VL: not shown	2.68	0.000397	148000	10.1	0.00101	100000	1.05	1.1	1.04	79.3	58.8	0.04	1.01	1.01	1.01	1.4	no binding (tested: 200 nM)	no binding			binding result [4]: no binding
32G8 (antibody, V domains shown, also called anti-5T4 antibody 32G8) VH: QVQLQESGPGLLQPSETLSLTCFVSGASINSSGHYWGWIRQPPGKGLEWIGSIYFSGNTNYNPSLKSRVTIAVDTSKNQFSLKLSSVTAADTAVYYCVRRNGRYCSTISCYDDYWGQGTLVTVSS VL: not shown	42.7	0.00529	124000	146	0.0143	98000	1.01	62.8	1.01	61.5	52.6	0.85	0.96	0.04	0.11	0.7	no binding (tested: 200 nM)	no binding			
